Publication doi:10.1101/494930 (bioRxiv, 2018)
Where “and” joins values, the source holds several entries; their conditions need not be identical. Equal values may be shown once.

B1: WT-HYPE (aa 102-458) (enzyme)
chain: GKLEARAALNQALEMKRQGKREKAQKLFMHALKMDPDFVDALTEFGIFSEEDKDIIQADYLYTRALTISPYHEKALVNRDRTLPLVEEIDQRYFSIIDSKVKKVMSIPKGNSALRRVMEETYYHHIYHTVAIEGNTLTLSEIRHILETRYAVPGKSLEEQNEVIGMHAAMKYINTTLVSRIGSVTISDVLEIHRRVLGYVDPVEAGRFRTTQVLVGHHIPPHPQDVEKQMQEFVQWLNSEEAMNLHPVEFAALAHYKLVYIHPFIDGNGRTSRLLMNLILMQAGYPPITIRKEQRSDYYHVLEAANEGDVRPFIRFIAKCTETTLDTLLFATTEYSVALPEAQPNHSGFKETLPVKP
B2: His6-BiP SBD (aa 418-637) (domain or fragment)
chain: not shown

Legend:
Assay in all cases: BLI
[1] = target: BiP-His6 (WT-BiP, aa 19-637) (human, UniProt P11021 19-637)
His6-BiP NBD (aa 28-405) = His6-BiP NBD (aa 28-405) (human, UniProt P11021 28-405)
WT-HYPE (aa 102-458) = target: B1

Sequence of BiP-His6 (WT-BiP, aa 19-637) (P11021 19-637): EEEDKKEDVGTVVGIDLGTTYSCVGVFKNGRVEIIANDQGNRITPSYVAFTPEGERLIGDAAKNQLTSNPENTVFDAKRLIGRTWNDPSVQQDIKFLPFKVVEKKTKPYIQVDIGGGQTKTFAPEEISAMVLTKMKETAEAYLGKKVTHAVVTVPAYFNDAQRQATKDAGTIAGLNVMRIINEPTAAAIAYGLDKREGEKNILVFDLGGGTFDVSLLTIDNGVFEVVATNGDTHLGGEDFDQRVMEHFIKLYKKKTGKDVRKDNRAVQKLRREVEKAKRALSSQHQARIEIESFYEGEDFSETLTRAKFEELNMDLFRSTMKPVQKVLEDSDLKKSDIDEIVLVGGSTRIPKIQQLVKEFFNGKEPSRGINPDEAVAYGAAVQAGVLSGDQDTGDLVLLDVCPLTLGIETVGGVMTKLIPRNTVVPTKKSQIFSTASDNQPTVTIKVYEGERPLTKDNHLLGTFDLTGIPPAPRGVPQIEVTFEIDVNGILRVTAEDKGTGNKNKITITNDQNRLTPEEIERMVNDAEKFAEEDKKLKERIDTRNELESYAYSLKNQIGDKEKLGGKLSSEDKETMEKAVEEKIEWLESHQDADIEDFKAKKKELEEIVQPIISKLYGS
Sequence of His6-BiP NBD (aa 28-405) (P11021 28-405): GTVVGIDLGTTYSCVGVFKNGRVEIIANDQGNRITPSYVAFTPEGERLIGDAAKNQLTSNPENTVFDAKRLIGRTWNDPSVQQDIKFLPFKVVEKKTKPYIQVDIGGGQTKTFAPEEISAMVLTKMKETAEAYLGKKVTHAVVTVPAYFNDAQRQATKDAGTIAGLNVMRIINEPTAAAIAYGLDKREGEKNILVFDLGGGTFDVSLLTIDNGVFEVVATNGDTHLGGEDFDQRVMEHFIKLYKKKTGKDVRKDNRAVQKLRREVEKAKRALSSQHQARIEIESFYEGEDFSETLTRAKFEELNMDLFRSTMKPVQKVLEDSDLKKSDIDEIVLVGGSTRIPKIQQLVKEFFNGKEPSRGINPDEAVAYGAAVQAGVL

Binder | Kd [1] | Kd (His6-BiP NBD (aa 28-405)) [µM] | Kd (WT-HYPE (aa 102-458)) [µM]
B1 | 4.5 µM and 6.1 µM | 3.16 | –
B2 | – | – | 6.85
